Publication PMC4706845

Columns and labels:
[1] = molecular target: PIKfyve from pig brain cytosol; experiment: proteo-liposome recruitment, western blot band quantification; conditions: 2 % input bar shown for reference, parent: est. 38, read off a plot
[2] = molecular target: Vac14 from pig brain cytosol (UniProt F1S3E8); experiment: as above; conditions: 2 % input bar shown for reference, parent: est. 21, read off a plot
UniProt F1S3E8, sequence (F1S3E8 entry or part of it): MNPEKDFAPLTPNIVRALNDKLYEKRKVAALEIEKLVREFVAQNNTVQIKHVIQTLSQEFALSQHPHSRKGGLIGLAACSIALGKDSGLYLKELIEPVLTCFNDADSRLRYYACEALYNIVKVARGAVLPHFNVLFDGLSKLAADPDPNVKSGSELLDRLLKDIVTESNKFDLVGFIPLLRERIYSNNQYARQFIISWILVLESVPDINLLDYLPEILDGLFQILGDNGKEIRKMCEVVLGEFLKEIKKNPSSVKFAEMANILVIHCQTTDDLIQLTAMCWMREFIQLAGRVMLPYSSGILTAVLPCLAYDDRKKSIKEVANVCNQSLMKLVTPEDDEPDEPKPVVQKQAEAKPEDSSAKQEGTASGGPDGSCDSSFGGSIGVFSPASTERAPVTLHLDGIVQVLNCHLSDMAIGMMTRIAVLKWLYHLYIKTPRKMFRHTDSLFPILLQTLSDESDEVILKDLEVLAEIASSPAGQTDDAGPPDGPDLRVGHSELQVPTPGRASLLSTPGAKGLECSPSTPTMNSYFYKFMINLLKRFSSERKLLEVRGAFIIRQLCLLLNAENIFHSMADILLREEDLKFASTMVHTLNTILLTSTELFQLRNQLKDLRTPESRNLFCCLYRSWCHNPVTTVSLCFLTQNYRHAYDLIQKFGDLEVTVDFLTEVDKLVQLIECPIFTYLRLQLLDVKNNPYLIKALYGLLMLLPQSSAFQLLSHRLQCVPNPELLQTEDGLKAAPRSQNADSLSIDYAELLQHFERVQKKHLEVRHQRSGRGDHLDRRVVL

| response [1] [a.u.] | response [2] [a.u.] | Substance |
| --- | --- | --- |
| 2.5 | 1 | APP intracellular domain (AICD), full length AICD Y34A; E35A |
| 3 | 0.7 | APP intracellular domain (AICD), full length AICD T38A; Y39A |
| 8.5 | 3.5 | APP intracellular domain (AICD), full length AICD N36A; P37A |
